Laboratory results as given in the supplement of paper PMC10567573.

B1: CLK3 (parent)
chain: FGEDYYGPSRSRHRRRSRERGPYR

Variants of: B1
Assay: protein stability index of a GFP-peptide fusion (GPS, HEK-293T) (PSI 1-6); higher = more stable
Conditions: c terminus: a fixed tail appended
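Note: lentivirally expressed fusions sorted by FACS into six bins by GFP to DsRed ratio, PSI derived from sequencing read proportions per bin multiplied by bin number.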

| Variant | protein stability index |
| --- | --- |
| FGEDYYGPSRSRHRRQSRERGPYR [R16Q] | 2.97 |
| FGEDYYGPSRSRHRRKSRERGPYR [R16K] | 2.46 |
| FGEDYYGPSRSRHRRWSRERGPYR [R16W] | 2.33 |
| FGEDYYGPSRSRHRRESRERGPYR [R16E] | 2.86 |
| FGEDYYGPSRSRHRRVSRERGPYR [R16V] | 2.23 |
| FGEDYYGPSRSRHRRGSRERGPYR [R16G] | 2.52 |
| FGEDYYGPSRSRHRRMSRERGPYR [R16M] | 1.9 |
| FGEDYYGPSRSRHRRHSRERGPYR [R16H] | 2.35 |
| FGEDYYGPSRSRHRRLSRERGPYR [R16L] | 1.62 |
| FGEDYYGPSRSRHRRISRERGPYR [R16I] | 1.96 |
| FGEDYYGPSRSRHRRSSRERGPYR [R16S] | 1.77 |
| FGEDYYGPSRSRHRRNSRERGPYR [R16N] | 2.26 |
| FGEDYYGPSRSRHRRFSRERGPYR [R16F] | 1.64 |
| FGEDYYGPSRSRHRRPSRERGPYR [R16P] | 1.63 |
| FGEDYYGPSRSRHRRTSRERGPYR [R16T] | 2.2 |
| FGEDYYGPSRSRHRRRIRERGPYR [S17I] | 3.18 |
| FGEDYYGPSRSRHRRRTRERGPYR [S17T] | 3.45 |
| FGEDYYGPSRSRHRRRERERGPYR [S17E] | 2.01 |
| FGEDYYGPSRSRHRRRKRERGPYR [S17K] | 2.81 |
| FGEDYYGPSRSRHRRRYRERGPYR [S17Y] | 3.4 |
| FGEDYYGPSRSRHRRRCRERGPYR [S17C] | 2.83 |
| FGEDYYGPSRSRHRRRLRERGPYR [S17L] | 2.43 |
| FGEDYYGPSRSRHRRRRRERGPYR [S17R] | 4.26 |
| FGEDYYGPSRSRHRRRNRERGPYR [S17N] | 3.93 |

| Variant | protein stability index |
| --- | --- |
| FGEDYYGPSRSRHRRRMRERGPYR [S17M] | 3.93 |
| FGEDYYGPSRSRHRRRPRERGPYR [S17P] | 2.6 |
| FGEDYYGPSRSRHRRRDRERGPYR [S17D] | 2.58 |
| FGEDYYGPSRSRHRRRHRERGPYR [S17H] | 3.52 |
| FGEDYYGPSRSRHRRRVRERGPYR [S17V] | 2.86 |
| FGEDYYGPSRSRHRRRGRERGPYR [S17G] | 3.1 |
| FGEDYYGPSRSRHRRRWRERGPYR [S17W] | 4.02 |
| FGEDYYGPSRSRHRRRFRERGPYR [S17F] | 3.51 |
| FGEDYYGPSRSRHRRRARERGPYR [S17A] | 2.85 |
| FGEDYYGPSRSRHRRRQRERGPYR [S17Q] | 2.89 |
| FGEDYYGPSRSRHRRRSRERHPYR [G21H] | 3.13 |
| FGEDYYGPSRSRHRRRSRERDPYR [G21D] | 2.47 |
| FGEDYYGPSRSRHRRRSRERFPYR [G21F] | 3.47 |
| FGEDYYGPSRSRHRRRSRERTPYR [G21T] | 2.53 |
| FGEDYYGPSRSRHRRRSREREPYR [G21E] | 2.11 |
| FGEDYYGPSRSRHRRRSRERVPYR [G21V] | 2.39 |
| FGEDYYGPSRSRHRRRSRERQPYR [G21Q] | 2.8 |
| FGEDYYGPSRSRHRRRSRERAPYR [G21A] | 2.69 |
| FGEDYYGPSRSRHRRRSRERIPYR [G21I] | 2.93 |
| FGEDYYGPSRSRHRRRSRERSPYR [G21S] | 1.41 |
| FGEDYYGPSRSRHRRRSRERRPYR [G21R] | 3.2 |
| FGEDYYGPSRSRHRRRSRERKPYR [G21K] | 3.15 |
| FGEDYYGPSRSRHRRRSRERLPYR [G21L] | 2.91 |
| FGEDYYGPSRSRHRRRSRERYPYR [G21Y] | 3.37 |

| Variant | protein stability index |
| --- | --- |
| FGEDYYGPSRSRHRRRSRERPPYR [G21P] | 2.95 |
| FGEDYYGPSRSRHRRRSRERNPYR [G21N] | 2.33 |
| FGEDYYGPSRSRHRRRSRERMPYR [G21M] | 3.38 |
| FGEDYYGPSRSRHRRRSRERCPYR [G21C] | 3.2 |
| FGEDYYGPSRSRHRRRSRERWPYR [G21W] | 4.06 |
| FGEDYYGPSRSRHRRRSRERGPYK [R24K] | 2.62 |
| FGEDYYGPSRSRHRRRSRERGPYE [R24E] | 2.32 |
| FGEDYYGPSRSRHRRRSRERGPYF [R24F] | 2.8 |
| FGEDYYGPSRSRHRRRSRERGPYN [R24N] | 2.46 |
| FGEDYYGPSRSRHRRRSRERGPYP [R24P] | 3.48 |
| FGEDYYGPSRSRHRRRSRERGPYG [R24G] | 3.26 |
| FGEDYYGPSRSRHRRRSRERGPYL [R24L] | 1.96 |
| FGEDYYGPSRSRHRRRSRERGPYS [R24S] | 2.46 |
| FGEDYYGPSRSRHRRRSRERGPYV [R24V] | 2.46 |
| FGEDYYGPSRSRHRRRSRERGPYH [R24H] | 2.67 |
| FGEDYYGPSRSRHRRRSRERGPYT [R24T] | 1.81 |
| FGEDYYGPSRSRHRRRSRERGPYM [R24M] | 2.85 |
| FGEDYYGPSRSRHRRRSRERGPYW [R24W] | 2.18 |
| FGEDYYGPSRSRHRRRSRERGPYI [R24I] | 2.68 |
| FGEDYYGPSRSRHRRRSRERGPYC [R24C] | 1.92 |
| FGEDYYGPSRSRHRRRSRERGPYQ [R24Q] | 2.14 |
| FGEDYYGPSRSRHRRRSRERGPYD [R24D] | 1.9 |
| FGEDYYGPSRSRHRRRSRERGPYY [R24Y] | 2.35 |
| FGEDYYGPSRSRHRRRSRERGPYA [R24A] | 2.02 |

| Variant | protein stability index |
| --- | --- |
| FGEDYYGPSRSRHRRRSREHGPYR [R20H] | 2.44 |
| FGEDYYGPSRSRHRRRSREQGPYR [R20Q] | 2.79 |
| FGEDYYGPSRSRHRRRSRETGPYR [R20T] | 2.39 |
| FGEDYYGPSRSRHRRRSRENGPYR [R20N] | 2.11 |
| FGEDYYGPSRSRHRRRSREAGPYR [R20A] | 2.47 |
| FGEDYYGPSRSRHRRRSREYGPYR [R20Y] | 2.3 |
| FGEDYYGPSRSRHRRRSREVGPYR [R20V] | 2.22 |
| FGEDYYGPSRSRHRRRSREEGPYR [R20E] | 2.27 |
| FGEDYYGPSRSRHRRRSREGGPYR [R20G] | 2.21 |
| FGEDYYGPSRSRHRRRSREDGPYR [R20D] | 2.56 |
| FGEDYYGPSRSRHRRRSREIGPYR [R20I] | 2.21 |
| FGEDYYGPSRSRHRRRSREMGPYR [R20M] | 2.3 |
| FGEDYYGPSRSRHRRRSRESGPYR [R20S] | 2.24 |
| FGEDYYGPSRSRHRRRSREWGPYR [R20W] | 2.85 |
| FGEDYYGPSRSRHRRRSREPGPYR [R20P] | 2.65 |
| FGEDYYGPSRSRHRRRSRECGPYR [R20C] | 2.72 |
| FGEDYYGPSRSRHRRRSRELGPYR [R20L] | 2.45 |
| FGEDYYGPSRSRHRRRSREFGPYR [R20F] | 3.04 |
| FGEDYYGPSRSRHRRRSREKGPYR [R20K] | 2.62 |
| FGEDYYGPSRSRHRRRSTERGPYR [R18T] | 2.32 |
| FGEDYYGPSRSRHRRRSFERGPYR [R18F] | 2.73 |
| FGEDYYGPSRSRHRRRSMERGPYR [R18M] | 2.89 |
